Assay results reported in patent publication US20220273713A1, “METHOD OF INHIBITING OR ACTIVATING GAMMA DELTA T CELLS” (The University of Melbourne, priority 2019, published 2022).
Several values for one entry are separate records, joined by “and”; a condition that tells them apart may be missing. Identical values can stand only once. One block for each molecule: values may come before it.

How the values were obtained:
Vγ9Vδ2 cells = test: Luminex (Vγ9Vδ2): cytokine/chemokine secretion by pre-expanded Vγ9Vδ2 cells; format: cell-based, human; settings: for GMCSF / ICAM-1 / IFNγ / IL-4 / IL-8 / IL-13 / IL-17A / MIP-1a / MIP-1b / TNFα / sE-selectin / sP-Selectin: 16 hrs, antibodies 10 μg/ml, Zoledronic acid 4 μM, HMBPP 0.5 ng/ml, duplicates, 0 set to 0.1; for cytokine/chemokine secretion, in words: vs isotype (BM4);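 as to all read-outs here: Vγ9Vδ2 cells purified from PBMC, activated 48 h with CD3 and CD28 plus IL-2, expanded 14 days in IL-2, then thawed and rested overnight in IL-2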
Protocol: Briefly, Vγ9Vδ2 cells were isolated from 1 healthy donor (Red Cross Australia) and 1 cancer patient derived PBMC using TCRγ/δ+ T Cell Isolation Kit (Miltenyi). Cells were stimulated for 48 hours in TCRPMI supplemented with 100u/ml IL-2, CD3 (10 μg/ml) and CD28 (1 μg/ml). Cells were washed and grown for 14 days in TCRPMI supplemented with 100u/ml IL-2 at 37 degrees C. and 5% CO2, and then frozen down. […] Vγ9Vδ2 were defrosted and rested overnight in TCRPMI supplemented with 50u/ml IL-2 at 37 degrees C. and 5% CO2. […] All samples were run with appropriate controls and standards.

BTN2A1 B30.2 domain = BTN2A1 B30.2 domain (Homo sapiens, UniProt Q7KYR7); settings: ITC, 25° C., B30.2 domain 100 μM, pAg 2 mM
Chain of BTN2A1 B30.2 domain (Q7KYR7 310-506 limits assumed): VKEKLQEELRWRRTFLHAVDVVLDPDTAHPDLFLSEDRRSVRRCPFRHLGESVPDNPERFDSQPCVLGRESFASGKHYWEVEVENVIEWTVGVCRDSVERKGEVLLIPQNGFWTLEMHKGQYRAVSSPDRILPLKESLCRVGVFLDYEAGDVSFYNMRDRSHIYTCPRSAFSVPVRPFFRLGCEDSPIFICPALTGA
Protocol: ITC experiments were conducted on a MicroCal ITC200 instrument (GE Healthcare) at 25° C. […] Data were analysed with Microcal Origin software.

Vγ9^+ T cells = settings: cited from earlier work
[1] = molecular target: 'hybrid' Vγ9+Vδ1+ γδTCR (TCR #6 γ-chain paired with an irrelevant Vδ1+ chain), soluble ectodomain (human); test: SPR, γδTCR ectodomain immobilized on streptavidin chip, soluble BTN2A1 200-3.1 µM, KD derived at equilibrium
Chain of 'hybrid' Vγ9+Vδ1+ γδTCR (TCR #6 γ-chain paired with an irrelevant Vδ1+ chain), soluble ectodomain (human) (TCR gamma, as listed by the source): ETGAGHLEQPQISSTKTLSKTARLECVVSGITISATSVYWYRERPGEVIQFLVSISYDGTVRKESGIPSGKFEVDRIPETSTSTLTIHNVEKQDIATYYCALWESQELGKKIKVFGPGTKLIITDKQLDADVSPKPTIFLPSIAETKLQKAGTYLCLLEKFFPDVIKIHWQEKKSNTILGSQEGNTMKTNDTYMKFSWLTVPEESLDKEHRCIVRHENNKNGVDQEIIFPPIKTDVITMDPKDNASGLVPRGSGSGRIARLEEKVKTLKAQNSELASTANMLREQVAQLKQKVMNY

[2] = molecular target: 'hybrid' Vγ9+Vδ1+ γδTCR (TCR #6 γ-chain paired with an irrelevant Vδ1+ chain), soluble ectodomain (human); test: surface plasmon resonance, binding at equilibrium (saturation plot with Scatchard inset, Expt. 1 and Expt. 2), soluble BTN2A1 200-3.1 µM over immobilized hybrid TCR
human BTN2A2, isoform 1 = molecular target: T1, human BTN2A2, isoform 1 (human, UniProt Q8WVV5 33-523); test: told in the legend of FIG. 24; data in FIG. 11 (ELISA, transfected cells)
T1 construct: whole, on cells
T1 sequence (looked up): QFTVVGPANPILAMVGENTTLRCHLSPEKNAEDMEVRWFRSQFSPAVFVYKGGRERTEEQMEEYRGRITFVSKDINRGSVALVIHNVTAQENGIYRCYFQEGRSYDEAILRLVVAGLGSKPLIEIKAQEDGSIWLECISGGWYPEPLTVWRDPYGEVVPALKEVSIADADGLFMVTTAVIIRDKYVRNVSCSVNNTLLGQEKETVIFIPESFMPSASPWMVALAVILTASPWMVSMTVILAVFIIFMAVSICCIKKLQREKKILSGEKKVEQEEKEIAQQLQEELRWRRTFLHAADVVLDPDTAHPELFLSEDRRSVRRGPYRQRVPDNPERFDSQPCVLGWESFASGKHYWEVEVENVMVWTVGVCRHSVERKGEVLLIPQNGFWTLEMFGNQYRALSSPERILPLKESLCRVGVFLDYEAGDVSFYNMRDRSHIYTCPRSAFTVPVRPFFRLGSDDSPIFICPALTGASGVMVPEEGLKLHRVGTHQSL
Protocol: Purified recombinant proteins (0.2-20 μg/ml) were immobilized in microplate wells in PBS buffer overnight at 4° C. Non-specific binding was then blocked by incubation in PBS containing 0.05% tween 20 plus 5% skim milk powder or 0.5% (w/v) bovine serum albumin (BSA). The wells were then incubated for 60 minutes at room temperature in the presence of antibodies at 2-5 μg/mL in PBS/0.05% tween-20/2% skim milk powder or 0.5% BSA, followed by washing in PBS/0.05% tween-20. Plates were then incubated with HRP-labelled sheep anti-mouse IgG secondary antibody (Chemicon), or goat anti-mouse IgG secondary antibody (Millipore) followed by detection using 3,3′,5,5′-tetramethylbenzidine substrate (Sigma) and absorbance was measured at 450 nm using a plate reader.

[3] = molecular target: T2, human BTN3A1, isoform 1, on cells (human, UniProt O00481 30-513); test: FRET between C-terminal CFP/YFP tags on co-transfected NIH-3T3 cells, flow cytometry (FIG. 5D, FIG. 20A)
T2 construct: whole, on cells
T2 sequence (O00481 30-513 limits assumed): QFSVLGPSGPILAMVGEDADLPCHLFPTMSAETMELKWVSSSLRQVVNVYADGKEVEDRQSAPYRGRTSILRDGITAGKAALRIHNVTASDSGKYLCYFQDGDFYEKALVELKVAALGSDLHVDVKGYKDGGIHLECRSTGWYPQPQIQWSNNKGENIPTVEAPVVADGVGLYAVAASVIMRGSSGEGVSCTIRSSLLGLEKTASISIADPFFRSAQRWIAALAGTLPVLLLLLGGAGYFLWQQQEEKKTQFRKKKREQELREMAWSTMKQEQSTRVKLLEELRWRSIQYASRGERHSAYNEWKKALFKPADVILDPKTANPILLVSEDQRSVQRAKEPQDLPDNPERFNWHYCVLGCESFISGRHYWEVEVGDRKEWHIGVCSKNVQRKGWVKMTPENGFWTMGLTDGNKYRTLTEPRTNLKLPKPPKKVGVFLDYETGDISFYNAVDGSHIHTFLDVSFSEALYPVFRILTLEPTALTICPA

[4] = system: Vδ2^+ γδ T cells among PBMCs; test: γδ T cell functional assay: PBMC ± zoledronate ± anti-BTN2A1 mAb; format: cell-based, human; settings: PBMCs 24 h, 4 μM zoledronate, 10 μg/ml anti-BTN2A1 mAb, compared to isotype control mAb
Protocol: Fresh PBMC (2×10^6) were cultured in 24 well plates ±zoledronate (4 μM, Sigma) and purified mAb against BTN2A1, BTN3A1, or isotype control IgG1κ (MOPC-21, BioLegend) (10 μg/ml) After 24 h CD3ε^+ γδTCR^+ Vδ2^+/− γδ T cell activation was assessed by flow cytometry and cytokine production was determined by cytometric bead array according to manufacturer instructions (BD). For the assays in FIG. 14, PBMC were cultured in 24 well plates and blocked for 30 min with mAb against BTN2A1, BTN3A1, or isotype control (10 μg/ml). […] Cells were surface-stained and then fixed and permeabilized using Foxp3/Transcription Factor Staining Buffer Set (Invitrogen) according to the manufacturer's protocol followed by staining with anti-IFN-γ (Biolegend). For co-culture assays, purified and in vitro-expanded γδ T cells (5×10^5) were incubated in 96 well plates with APCs (3×10^5) for 24 h ±zoledronate (4 μM), and γδ T cell activation was determined by flow cytometry as above.

[5] = system: in vitro pre-expanded CD3+Vδ2+ γδ T cells; test: HMBPP or anti-CD3/anti-CD28 activation of purified in vitro-expanded Vδ2+ T cells ± neutralizing anti-BTN2A1 mAb; format: cell-based, human; settings: HMBPP 0.5 ng/ml, 10 μg/ml neutralizing anti-BTN2A1 mAb, no APCs
Protocol: CD25 expression was determined by flow cytometry, and IFN-γ concentration was determined by cytometric bead array (BD Bioscience) as per manufacturer instructions.

[6] = γδT cells from patient 1 (melanoma patient)

Molecule: CC(=CCOP(=O)(O)OP(=O)(O)O)CO [HMBPP, 4-hydroxy-3-methyl-but-2-enyl pyrophosphate, reference compound]
GMCSF (Vγ9Vδ2 cells; γδT cells from a healthy donor): 2375.52 pg/mL and 2349.07 pg/mL
ICAM-1 (Vγ9Vδ2 cells; γδT cells from a healthy donor): 575.02 pg/mL and 570.14 pg/mL
IFNγ (Vγ9Vδ2 cells; γδT cells from a healthy donor): 751.87 pg/mL and 798.38 pg/mL
IL-4 (Vγ9Vδ2 cells; γδT cells from a healthy donor): 137.56 pg/mL and 117.91 pg/mL
IL-8 (Vγ9Vδ2 cells; γδT cells from a healthy donor): 0.1 pg/mL
IL-13 (Vγ9Vδ2 cells; γδT cells from a healthy donor): 84.37 pg/mL and 87.99 pg/mL
IL-17A (Vγ9Vδ2 cells; γδT cells from a healthy donor): 8.39 pg/mL and 9.97 pg/mL
MIP-1a (Vγ9Vδ2 cells; γδT cells from a healthy donor): 395.47 pg/mL and 392.74 pg/mL
MIP-1b (Vγ9Vδ2 cells; γδT cells from a healthy donor): 19239.36 pg/mL and 20123.08 pg/mL
TNFα (Vγ9Vδ2 cells; γδT cells from a healthy donor): 2186.67 pg/mL and 2148.53 pg/mL
sE-selectin (Vγ9Vδ2 cells; γδT cells from a healthy donor): 387.87 pg/mL and 373.47 pg/mL
sP-Selectin (Vγ9Vδ2 cells; γδT cells from a healthy donor): 3183.34 pg/mL and 3082.95 pg/mL
GMCSF (Vγ9Vδ2 cells; [6]): 2172.54 pg/mL and 2625.54 pg/mL
ICAM-1 (Vγ9Vδ2 cells; [6]): 729.5 pg/mL and 885.22 pg/mL
IFNγ (Vγ9Vδ2 cells; [6]): 723.16 pg/mL and 791.56 pg/mL
IL-4 (Vγ9Vδ2 cells; [6]): 875.51 pg/mL and 1027.45 pg/mL
IL-13 (Vγ9Vδ2 cells; [6]): 478.3 pg/mL and 602.86 pg/mL
IL-17A (Vγ9Vδ2 cells; [6]): 9.23 pg/mL and 10.85 pg/mL
MIP-1a (Vγ9Vδ2 cells; [6]): 321.54 pg/mL and 383.73 pg/mL
MIP-1b (Vγ9Vδ2 cells; [6]): 9453.77 pg/mL and 12721.52 pg/mL
TNFα (Vγ9Vδ2 cells; [6]): 2973.1 pg/mL and 3657.48 pg/mL
sE-selectin (Vγ9Vδ2 cells; [6]): 373.32 pg/mL and 372.16 pg/mL
sP-Selectin (Vγ9Vδ2 cells; [6]): 2542.23 pg/mL and 2775.99 pg/mL
binding of pAg to BTN2A1 B30.2 domain (BTN2A1 B30.2 domain): no clear interaction
sensitivity for HMBPP relative to IPP (Vγ9^+ T cells): ~1000 fold

Kd [1]: 50 µM
Kd [2]: 50.4 µM
Molecule: soluble BTN2A1 ectodomain (IgV and IgC domains; Gln29 to Ser245) with C-terminal linker, Avi-tag and His6-tag (ligand)

binding result (human BTN2A2, isoform 1): no binding
B1: anti-BTN2A1 antibody 259 (antibody, V domains shown)
VH: EVQLLESGGGLVQPGGSLRLSCAASGFTFSSYAMQWVRQAPGKGLEWVSRIGPSGGGTMYADSVKGRFTISRDNSKNTLYLQMNSLRAEDMAVYYCARDLGGLSVLFDYWGQGTLVTVSS
VL: QSELTQPPSASETPGQRVTISCSGSSSNIGSNTVSWFQQLPGSAPRLLIYNDHRRPSGVPDRFSGSKSGTSASLVISGLQSQDEADYYCSAWDDSLNGVVFGGGTKLTVL

binding result [3]: no binding
B2: human BTNL8, isoform 1, on cells (ligand, UniProt Q6UX41 18-500, looked up)
chain: QWQVFGPDKPVQALVGEDAAFSCFLSPKTNAEAMEVRFFRGQFSSVVHLYRDGKDQPFMQMPQYQGRTKLVKDSIAEGRISLRLENITVLDAGLYGCRISSQSYYQKAIWELQVSALGSVPLISITGYVDRDIQLLCQSSGWFPRPTAKWKGPQGQDLSTDSRTNRDMHGLFDVEISLTVQENAGSISCSMRHAHLSREVESRVQIGDTFFEPISWHLATKVLGILCCGLFFGIVGLKIFFSKFQWKIQAELDWRRKHGQAELRDARKHAVEVTLDPETAHPKLCVSDLKTVTHRKAPQEVPHSEKRFTRKSVVASQSFQAGKHYWEVDGGHNKRWRVGVCRDDVDRRKEYVTLSPDHGYWVLRLNGEHLYFTLNPRFISVFPRTPPTKIGVFLDYECGTISFFNINDQSLIYTLTCRFEGLLRPYIEYPSYNEQNGTPIVICPVTQESEKEASWQRASAIPETSNSESSSQATTPFLPRGEM
notes: whole, on cells; also called B7NL8

B3: Hu34C1: antagonist anti-BTN2A1 mAb; VH SEQ ID NO: 100, VL SEQ ID NO: 101; human IgG4 Fab, murine IgG2a Fc (antibody, V domains shown)
VH: EVQLLESGGGLVQPGGSLRLSCAASGFTFSHYPMIWVRQAPGKGLEWVSSISSSGGSTHYADSVKGRFTISRDNSKNTLYLQMNSLRAEDTAMYYCAALVSDTDFWGQGTLVTVSS
VL: DIQMTQSPATLSVSPGESTTLSCRASQSVTSNLAWYQQKPGQAPSLLIYGASTRATGIPARFSGSGSGTEFTLTISSLQSEDSAVYYCQQYNNWPRTFGQGTKVEIK
modifications: human IgG4 Fab, murine IgG2a Fc constant regions; amino acid sequence of Hu34C VH; amino acid sequence of Hu34C VL
cytokine/chemokine secretion, in words (Vγ9Vδ2 cells; cancer patient derived Vγ9Vδ2 cells): reduction in levels of GMCSF, ICAM1 (to undetectable levels), IFNγ, IL-13, MIP1α and MIP1β as well as sE-selectin
cytokine/chemokine secretion, in words (Vγ9Vδ2 cells; healthy donor derived Vγ9Vδ2 cells): downregulation of MIP1α and b as well as GMCSF
ICAM-1 (Vγ9Vδ2 cells; γδT cells from a healthy donor): 0.1 pg/mL
IFNγ (Vγ9Vδ2 cells; γδT cells from a healthy donor): 0.1 pg/mL
IL-4 (Vγ9Vδ2 cells; γδT cells from a healthy donor): 0.1 pg/mL
IL-8 (Vγ9Vδ2 cells; γδT cells from a healthy donor): 0.1 pg/mL
IL-13 (Vγ9Vδ2 cells; γδT cells from a healthy donor): 0.1 pg/mL
IL-17A (Vγ9Vδ2 cells; γδT cells from a healthy donor): 0.1 pg/mL
MIP-1a (Vγ9Vδ2 cells; γδT cells from a healthy donor): 9.16 pg/mL and 7.83 pg/mL
MIP-1b (Vγ9Vδ2 cells; γδT cells from a healthy donor): 50.62 pg/mL and 43.18 pg/mL
TNFα (Vγ9Vδ2 cells; γδT cells from a healthy donor): 0.1 pg/mL
sE-selectin (Vγ9Vδ2 cells; γδT cells from a healthy donor): 0.1 pg/mL
sP-Selectin (Vγ9Vδ2 cells; γδT cells from a healthy donor): 0.1 pg/mL
GMCSF (Vγ9Vδ2 cells; [6]): 8.09 pg/mL and 9.22 pg/mL
ICAM-1 (Vγ9Vδ2 cells; [6]): 0.1 pg/mL
IFNγ (Vγ9Vδ2 cells; [6]): 0.1 pg/mL
IL-4 (Vγ9Vδ2 cells; [6]): 0.1 pg/mL
IL-8 (Vγ9Vδ2 cells; [6]): 0.1 pg/mL
IL-13 (Vγ9Vδ2 cells; [6]): 16.14 pg/mL and 14.86 pg/mL
IL-17A (Vγ9Vδ2 cells; [6]): 0.1 pg/mL
MIP-1a (Vγ9Vδ2 cells; [6]): 50.75 pg/mL and 51.38 pg/mL
MIP-1b (Vγ9Vδ2 cells; [6]): 239.49 pg/mL and 252.05 pg/mL
TNFα (Vγ9Vδ2 cells; [6]): 0.1 pg/mL
sP-Selectin (Vγ9Vδ2 cells; [6]): 0.1 pg/mL
indicators of TCR-dependent activation (CD25 induction, CD3 downregulation, IFN-γ and TNF production) [4]: significantly inhibited
HMBPP-induced activation (CD25 upregulation, IFN-γ production) [5]: failed to upregulate CD25 and produce IFN-γ
